In article PMC6446846 (The Journal of Cell Biology, 2019):

T1: GST-KBP (kinesin-binding protein) (human, UniProt Q96EK5 1-621)
T1 sequence (looked up): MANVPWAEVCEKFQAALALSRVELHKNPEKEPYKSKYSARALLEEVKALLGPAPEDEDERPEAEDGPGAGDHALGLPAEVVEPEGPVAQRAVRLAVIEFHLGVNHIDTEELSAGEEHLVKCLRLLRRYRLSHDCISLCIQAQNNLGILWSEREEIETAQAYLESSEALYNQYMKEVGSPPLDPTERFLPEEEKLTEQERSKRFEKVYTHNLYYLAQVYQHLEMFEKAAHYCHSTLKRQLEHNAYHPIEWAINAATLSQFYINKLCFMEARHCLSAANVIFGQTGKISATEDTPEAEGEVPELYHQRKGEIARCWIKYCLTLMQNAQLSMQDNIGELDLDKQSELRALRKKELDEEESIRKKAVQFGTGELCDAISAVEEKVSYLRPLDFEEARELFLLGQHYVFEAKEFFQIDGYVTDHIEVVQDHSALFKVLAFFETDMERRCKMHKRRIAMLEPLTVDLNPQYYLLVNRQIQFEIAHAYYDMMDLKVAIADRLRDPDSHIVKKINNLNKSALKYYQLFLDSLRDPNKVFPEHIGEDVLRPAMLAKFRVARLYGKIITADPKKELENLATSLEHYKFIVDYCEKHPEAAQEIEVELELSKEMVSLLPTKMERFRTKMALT


Molecular target: T1, GST-KBP (kinesin-binding protein)
Assay: pull-down

binding result	Binder
binds	His6-KIF15-N420 (domain or fragment, human, UniProt Q9NS87 1-420, looked up) MAPGCKTELRSVTNGQSNQPSNEGDAIKVFVRIRPPAERSGSADGEQNLCLSVLSSTSLRLHSNPEPKTFTFDHVADVDTTQESVFATVAKSIVESCMSGYNGTIFAYGQTGSGKTFTMMGPSESDNFSHNLRGVIPRSFEYLFSLIDREKEKAGAGKSFLCKCSFIEIYNEQIYDLLDSASAGLYLREHIKKGVFVVGAVEQVVTSAAEAYQVLSGGWRNRRVASTSMNRESSRSHAVFTITIESMEKSNEIVNIRTSLLNLVDLAGSERQKDTHAEGMRLKEAGNINRSLSCLGQVITALVDVGNGKQRHVCYRDSKLTFLLRDSLGGNAKTAIIANVHPGSRCFGETLSTLNFAQRAKLIKNKAVVNEDTQGNVSQLQAEVKRLKEQLAELASGQTPPESFLTRDKKKTNYMEYFQE
binds	KIF18A-N480-GFP-His6 (domain or fragment, human, UniProt Q8NI77 1-480, looked up) MSVTEEDLCHHMKVVVRVRPENTKEKAAGFHKVVHVVDKHILVFDPKQEEVSFFHGKKTTNQNVIKKQNKDLKFVFDAVFDETSTQSEVFEHTTKPILRSFLNGYNCTVLAYGATGAGKTHTMLGSADEPGVMYLTMLHLYKCMDEIKEEKICSTAVSYLEVYNEQIRDLLVNSGPLAVREDTQKGVVVHGLTLHQPKSSEEILHLLDNGNKNRTQHPTDMNATSSRSHAVFQIYLRQQDKTASINQNVRIAKMSLIDLAGSERASTSGAKGTRFVEGTNINRSLLALGNVINALADSKRKNQHIPYRNSKLTRLLKDSLGGNCQTIMIAAVSPSSVFYDDTYNTLKYANRAKDIKSSLKSNVLNVNNHITQYVKICNEQKAEILLLKEKLKAYEEQKAFTNENDQAKLMISNPQEKEIERFQEILNCLFQNREEIRQEYLKLEMLLKENELKSFYQQQCHKQIEMMCSEDKVEKATGKR
